Our source for the stoichiometry N values is paper PMC12622831.

Assay [1] deals with Dengue virus serotype 2 (ET300 strain) non-structural protein 1, C-terminally His-tagged, purified (Dengue virus serotype 2, strain ET300). The assay is described as follows: SEC; purified His-tagged NS1, 0.5 mL on Superdex 200 increase 10/300 GL in PBS; fractions analysed by NS1 ELISA. For orientation: In gel filtration, larger molecules generally elute earlier.
Assay [2] addresses Dengue virus serotype 2 (ET300 strain) non-structural protein 1, untagged recombinant, expressed in suspension HEK293 cells (Dengue virus serotype 2, strain ET300). Put plainly: SEC; concentrated (about 10-fold, 520 μg/mL) NS1 expression medium, 0.5 mL on Superdex 200 increase 10/300 GL in PBS at 0.75 mL per min; NS1 in 0.25 mL fractions by ELISA and immunoblot.

Broadly, the stoichiometry N is a count of units in the complex or per binding partner.

Turning to “Dengue virus serotype 2 (ET300 strain) non-structural protein 1, C-terminally His-tagged, purified (natural protein)”, the stoichiometry N in assay [1] was 6. On to “Dengue virus serotype 2 (ET300 strain) non-structural protein 1, untagged recombinant, expressed in suspension HEK293 cells (natural protein)”, for which, in assay [2], the stoichiometry N came out at 6.
